From patent US20130196383A1, “Method of Producing Dicer” (published 2013)

How the values were obtained:
[1] = target: T1, hDcr-CΔRBD fragment of human Dicer (Homo sapiens, UniProt Q9UPY3 SEQ:1235-1844); experiment: filter; out of detectable limit; conditions: tags: expressed from pHMGWA-His6-MBP vector, E. coli
T1 chain: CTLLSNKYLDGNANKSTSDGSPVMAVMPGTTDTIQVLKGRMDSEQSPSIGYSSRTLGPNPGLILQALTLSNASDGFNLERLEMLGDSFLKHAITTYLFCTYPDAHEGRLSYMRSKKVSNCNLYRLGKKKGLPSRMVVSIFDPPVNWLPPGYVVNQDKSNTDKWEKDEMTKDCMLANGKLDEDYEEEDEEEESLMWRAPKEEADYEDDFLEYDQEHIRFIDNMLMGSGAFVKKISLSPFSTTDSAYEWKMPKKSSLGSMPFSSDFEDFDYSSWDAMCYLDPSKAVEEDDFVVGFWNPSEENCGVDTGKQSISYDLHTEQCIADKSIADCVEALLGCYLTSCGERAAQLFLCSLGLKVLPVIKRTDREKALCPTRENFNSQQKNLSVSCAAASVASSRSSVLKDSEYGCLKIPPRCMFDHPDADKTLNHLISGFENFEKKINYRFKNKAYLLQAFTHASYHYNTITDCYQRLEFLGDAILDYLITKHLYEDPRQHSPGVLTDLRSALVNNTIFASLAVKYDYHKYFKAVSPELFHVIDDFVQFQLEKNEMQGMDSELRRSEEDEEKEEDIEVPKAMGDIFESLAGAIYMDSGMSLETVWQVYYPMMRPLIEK
Description: (§1) Filter binding assays of hDcr and different hDcr fragments were performed in the same way as previously described (7). Briefly, serial dilutions of hDcr protein were incubated in a buffer containing 20 mM Tris-HCl (pH 7.5), 25 mM NaCl, 5 mM EDTA, 1 mM dithiothreitol (DTT), 1% glycerol and ˜0.5-1 nM (1500 CPM) of 5′-end ³²P-labeled duplex RNA substrate (one strand was labeled) at room temperature for 60 min in a 30 μl of total volume. Following incubation, a 25 μl aliquot of each reaction was applied to a dot-blot apparatus equipped with three membranes: Tuffryn, Protran and Nytran (from top to bottom). After drying, the bound (on Protran) or free (on Nytran) RNAs were quantified by a Phosphorimager (GE Healthcare). Percent bound RNA, calculated as the ratio of radioactivity detected on the Protran membrane over the total input radioactivity, was plotted as a function of protein concentration. Kd was determined by global fitting to the equation: kobsd=(kₘₐₓ[…]) (Kd+[Dicer])−1, where kobsd is the observed rate constant at a given protein concentration, kₘₐₓ is the maximal rate constant with saturating protein, and Kd is the protein concentration that provides half the maximal rate. Curve fitting was conducted with KaleidaGraph (Synergy Software, Reading, Pa.).
To establish the relationship between cleavage activity and substrate binding, nitrocellulose filter-binding assays were performed with three kinds of RNAs under non-cleavage conditions: substrate dsRNA ([…]), Dicer product-mimic dsRNA (19-bp) and a pre-miRNA (pre-hlet-7a-1).

[2] = target: T2, hDcr-C (RNase IIIa/IIIb-dsRBD) fragment of human Dicer (Homo sapiens, UniProt Q9UPY3 SEQ:1235-1922); experiment: filter; out of detectable limit; almost no binding; conditions: tags: expressed from pHMGWA-His6-MBP vector, E. coli; label: 5'-32P; hairpin pre-miRNA, 73 nt
T2 chain: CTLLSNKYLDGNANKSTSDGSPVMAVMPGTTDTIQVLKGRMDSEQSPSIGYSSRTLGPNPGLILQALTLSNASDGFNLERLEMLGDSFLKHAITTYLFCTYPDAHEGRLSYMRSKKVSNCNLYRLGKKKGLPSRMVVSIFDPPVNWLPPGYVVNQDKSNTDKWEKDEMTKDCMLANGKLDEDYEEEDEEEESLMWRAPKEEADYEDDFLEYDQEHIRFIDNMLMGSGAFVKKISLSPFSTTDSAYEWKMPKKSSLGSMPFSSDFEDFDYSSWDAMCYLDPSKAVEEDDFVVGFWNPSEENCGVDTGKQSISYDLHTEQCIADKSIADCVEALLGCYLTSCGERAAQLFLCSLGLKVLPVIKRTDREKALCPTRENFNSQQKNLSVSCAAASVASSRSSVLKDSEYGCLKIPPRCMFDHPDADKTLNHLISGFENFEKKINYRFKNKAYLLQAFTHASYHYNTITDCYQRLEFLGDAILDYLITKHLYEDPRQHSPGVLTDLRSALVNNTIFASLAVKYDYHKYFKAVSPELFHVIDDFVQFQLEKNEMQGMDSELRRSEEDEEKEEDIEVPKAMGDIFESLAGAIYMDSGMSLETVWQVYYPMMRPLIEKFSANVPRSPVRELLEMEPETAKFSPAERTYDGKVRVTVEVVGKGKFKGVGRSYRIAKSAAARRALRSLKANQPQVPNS
Description: as §1, with “Pa.). […]” for “Pa.).”

Row | Binder | binding result ([1]; label: 5'-32P, hairpin pre-miRNA, 73 nt) | binding result [2] | binding result ([1]; label: 5'-32P on one strand (37a), perfectly matched 35-bp duplex)
1 | pre-hlet-7a-1 (ssRNA) RNA: UGAGGUAGUAGGUUGUAUAGUUUUAGGGUCACACCCACCACUGGGAGAUAACUAUACAAUCUACUGUCUUACC | no binding | no binding | 
2 | 37ab (dsRNA) RNA 1: UGAGGUAGUAGGUUGUAUAGUUUGAAAGUUCACGAUU RNA 2: UCGUGAACUUUCAAACUAUACAACCUACUACCUCAUU |  |  | no binding
